Assay results reported in patent US20240228599A1 (Sanofi, published 2024).

How the values were obtained:
[1] = molecular target: T1, cynomolgus monkey Factor Bb (cynomolgus monkey); experiment: ELISA; cynomolgus Factor Bb coated at 5 µg/mL, mAb in 3-fold dilutions from 10 µg/mL; EC50 by Prism according to the text, headed 'Binding Affinity (M)' on the sheet
T1 construct: In the serum assays the target is the factor B/Bb of cynomolgus serum; also called cyno Factor Bb
Experimental: (§1) The relative EC₅₀ values for factor Bb mAbs were determined by ELISA. Unlabeled purified human Factor Bb (Complement Technologies; 1 μg/mL) was coated onto a high binding ELISA plate, and incubated with increasing amounts of purified mAbs (3-fold serial dilutions starting at 10 μg/mL). Horse radish peroxidase (HRP)-conjugated goat anti-mouse secondary antibody (Southern Biotech) was used for detection, and reacted with 3,3′,5,5′-Tetramethylbenzidine (TMB) 1-Step Ultra TMB-ELISA Substrate Solution (Thermo Scientific). Reactions were stopped with an equal volume of 1N sulfuric acid; and absorbance at OD₄₅₀ₙₘ was measured.
(§2) Factor Bb mAbs were assayed for their ability to bind to cynomolgus monkey Factor B or Factor Bb by ELISA. 5 μg/mL of each purified protein (Innovative Research; purified in-house) was coated onto ELISA plates, incubated with purified factor Bb mAbs (3-fold serial dilutions starting at 10 μg/mL), and bound antibody was detected as in Example 2.

purified human Factor Bb [2] = molecular target: T2, purified human Factor Bb (human, UniProt P00751 260-764); experiment: cell-based or functional assay
[3] = molecular target: T1, cynomolgus monkey Factor Bb; experiment: cell-based or functional assay
purified human Factor Bb [4] = molecular target: T2, purified human Factor Bb; experiment: antigen-capture ELISA; mAb at 1 µg/mL on goat anti-mouse IgG plates, 1 µg/mL biotinylated Factor Bb or Factor B, streptavidin-HRP; OD450 with Factor Bb divided by OD450 with Factor B; the text rounds this to 5.5
Experimental: (§3) Preferential binding of factor Bb antibodies to activated factor B versus full length Factor B zymogen was determined in an optimized antigen-capture ELISA format to evaluate binding to target soluble proteins. 1 μg/mL of antibody was bound to goat anti-mouse IgG coated plates (Pierce; Thermo Scientific), followed by incubation with 1 μg/mL biotinylated factor Bb or factor B (Complement Technologies). Bound factor Bb/B proteins were detected with streptavidin-HRP and reacted with TMB 1-Step Ultra TMB-ELISA Substrate Solution (Thermo Scientific). Reactions were stopped with an equal volume of 1N sulfuric acid; and absorbance at OD₄₅₀ₙₘ was measured. The ratio of absorbance of binding by Factor Bb versus Factor B (fBb/B ratio) was calculated and the results are shown in FIG. 3.

purified human Factor Bb [5] = molecular target: T2, purified human Factor Bb; experiment: ELISA; human Factor Bb coated at 1 µg/mL, mAb in 3-fold dilutions from 10 µg/mL, HRP goat anti-mouse, OD450
Experimental: as §1
Target sequence in this assay (P00751 260-764 limits assumed): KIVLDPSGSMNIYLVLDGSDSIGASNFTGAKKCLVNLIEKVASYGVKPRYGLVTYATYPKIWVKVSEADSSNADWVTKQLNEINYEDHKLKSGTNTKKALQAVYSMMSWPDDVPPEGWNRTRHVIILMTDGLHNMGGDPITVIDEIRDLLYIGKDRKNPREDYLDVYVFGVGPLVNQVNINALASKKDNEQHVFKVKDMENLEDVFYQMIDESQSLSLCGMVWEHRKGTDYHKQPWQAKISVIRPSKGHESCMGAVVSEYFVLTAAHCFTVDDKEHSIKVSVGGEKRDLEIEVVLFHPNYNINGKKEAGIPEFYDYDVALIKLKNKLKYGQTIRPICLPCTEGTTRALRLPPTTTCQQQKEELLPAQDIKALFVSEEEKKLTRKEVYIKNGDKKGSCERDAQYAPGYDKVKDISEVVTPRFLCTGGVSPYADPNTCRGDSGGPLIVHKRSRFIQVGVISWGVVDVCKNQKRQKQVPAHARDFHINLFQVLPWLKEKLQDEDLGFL

purified human Factor Bb [6] = molecular target: T2, purified human Factor Bb; experiment: antigen-capture ELISA, ratio of absorbance with biotinylated Factor Bb to that with Factor B
Experimental: as §3
Target sequence in this assay (P00751 260-764 limits assumed): as above

purified human Factor Bb [7] = molecular target: T2, purified human Factor Bb; experiment: ELISA on coated human Factor Bb; EC50 calculated with PRISM from the curves of FIG. 1
Experimental: as §1
Target sequence in this assay (P00751 260-764 limits assumed): as above

purified human Factor Bb [8] = molecular target: T2, purified human Factor Bb; experiment: antigen-capture ELISA; mAb at 1 µg/mL on goat anti-mouse IgG plates, 1 µg/mL biotinylated Factor Bb or Factor B, streptavidin-HRP; OD450 with Factor Bb divided by OD450 with Factor B
Experimental: as §3

[9] = molecular target: T3, cynomolgus monkey Factor Bb (cynomolgus monkey); experiment: ELISA; cynomolgus Factor Bb coated at 5 µg/mL, mAb in 3-fold dilutions from 10 µg/mL; EC50 by Prism according to the text, headed 'Binding Affinity (M)' on the sheet
T3 chain: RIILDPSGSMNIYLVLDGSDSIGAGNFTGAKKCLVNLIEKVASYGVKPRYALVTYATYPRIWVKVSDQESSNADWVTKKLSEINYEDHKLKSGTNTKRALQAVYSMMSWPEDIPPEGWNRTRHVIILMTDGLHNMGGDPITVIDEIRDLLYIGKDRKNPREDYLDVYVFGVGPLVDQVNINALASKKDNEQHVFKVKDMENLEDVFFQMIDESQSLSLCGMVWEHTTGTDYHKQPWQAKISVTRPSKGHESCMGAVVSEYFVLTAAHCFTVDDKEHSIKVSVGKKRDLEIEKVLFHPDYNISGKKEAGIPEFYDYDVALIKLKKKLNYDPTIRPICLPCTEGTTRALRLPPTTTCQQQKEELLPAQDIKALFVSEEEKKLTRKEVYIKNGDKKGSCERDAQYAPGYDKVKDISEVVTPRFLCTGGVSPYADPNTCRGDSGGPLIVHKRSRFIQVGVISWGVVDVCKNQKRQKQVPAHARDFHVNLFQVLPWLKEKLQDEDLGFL
Experimental: as §1, §2

full-length Factor B = molecular target: T4, full-length Factor B (UniProt P00751 26-764); experiment: antigen-capture ELISA, antibody on goat anti-mouse IgG plate
T4 construct: Biotinylated in the antigen-capture ELISA, unlabeled in SEC; also called Factor B zymogen; FB
Experimental: as §3

B1: anti-factor Bb monoclonal antibody M10 (antibody, V domains shown)
VH: EVQLVESGGALVKPGGSLKLSCAASGFTFSNYAMSWVRQTPEKRLEWVATISNRGSYTYYPDSVKGRFTISRDNAKNTLYLQMSSLRSEDTALYYCARERPMDYWGQGTSVTVSS
VL: DIVMTQSHKFMSTSVGDRVSITCKASQDVGTAVAWYQQKPGQSPKLLIYWASTRHTGVPDRFTGSGSGTDFTLTITNVQSEDLAVYFCHQHSSNPLTFGAGTKLELK
notes: Mouse monoclonal purified from hybridoma supernatant
For B1, the EC50 [1] was 0.488 nM, the “IC50, Wieslab AP activity, 5.5% normal human serum” value (purified human Factor Bb [2]) was 97.9 nM and the “IC50, Wieslab AP activity, 5.5% cynomolgus monkey serum” value [3] was 367 nM. For the same binder, the “IC50, hemolysis of rabbit RBCs by 5% cynomolgus monkey serum” value (from here on “IC50 … by 5% cynomolgus monkey serum”) [3] was 220 nM, the “Ratio OD fBb/fB (ELISA)” value (purified human Factor Bb [4]) was 5.49 and the “EC50 (read off the curve)” value (purified human Factor Bb [5]) was roughly 0.3 nM. For the same binder, the fBb/B ratio (purified human Factor Bb [6]) was 5.5 and the EC50 (purified human Factor Bb [7]) was 0.335 nM.

B2: anti-factor Bb monoclonal antibody M18 (antibody, V domains shown)
VH: B1 VH
VL: B1 VL
notes: as for B1
For B2, the EC50 [1] was 0.449 nM, the “IC50 … by 5% cynomolgus monkey serum” value [3] was 232 nM and the “EC50 (read off the curve)” value (purified human Factor Bb [5]) was roughly 0.3 nM. It also gave a fBb/B ratio (purified human Factor Bb [6]) of 8.4 and an EC50 (purified human Factor Bb [7]) of 0.336 nM.

B3: anti-factor Bb monoclonal antibody M4 (antibody, V domains shown)
VH: EVQLQQSGPELVKPGASVKMSCKASGYSFTDYLMNWVKQSHGKSLEWIGRINPYNGDAFYNQRFKGKATLTVDKSSSTAHMELRSLTSEDSALYYCARLENDYGFTYWGQGTLVTVSA
VL: DIVMTQAAFSNPVTLGTSASISCSSSKSLLHSNGITYLYWYLQRPGQSPQLLIYRMSNLASGVPDRFSGSGSGTDFTLRISRVEAEDVGVYYCAQMLERPWTFGGGTKLEIK
notes: Mouse monoclonal purified from hybridoma supernatant; also called Factor B/Bb antibody M4
With B3 the “Ratio OD fBb/fB (ELISA)” value (purified human Factor Bb [8]) was 0.59, the “IC50 … by 5% cynomolgus monkey serum” value [3] was 25 nM and the “EC50 (read off the curve)” value (purified human Factor Bb [5]) was roughly 0.8 nM. The fBb/B ratio (purified human Factor Bb [6]) was no less than 1 and the EC50 (purified human Factor Bb [7]) was 0.874 nM.

B4: anti-factor Bb monoclonal antibody M12 (antibody, V domains shown)
VH: B3 VH
VL: B3 VL
notes: as for B1
With B4 the “Ratio OD fBb/fB (ELISA)” value (purified human Factor Bb [8]) was 0.82, the EC50 [1] was 2.55 nM and the “IC50 … by 5% cynomolgus monkey serum” value [3] was 28.2 nM. The “EC50 (read off the curve)” value (purified human Factor Bb [5]) was roughly 0.7 nM, the fBb/B ratio (purified human Factor Bb [6]) was no less than 1 and the EC50 (purified human Factor Bb [7]) was 0.761 nM.

B5: anti-factor Bb monoclonal antibody M17 (antibody, V domains shown)
VH: EVQLVESGGVLVKPGGSLKLSCAASGFTFSNFAMSWVRQTPAKRLEWVATISNGGGYTYYPDSVQGRFTISRDNANNTLYLQMSSLRSEDTALYYCARIYYGSSYEDWFAYWGQGTLVTVSA
VL: DIVMTPSHKFMSTSVGDRVSITCKASQDVGSAVAWYQQKPGHSPKLLIFWASTRHTGVPDRFTGSGSGTDFTLTISNVQSEDLADYFCQQYSSYPYTFGGGTRLEIK
notes: as for B1
With B5 the “Ratio OD fBb/fB (ELISA)” value (purified human Factor Bb [8]) was 70.7, the EC50 [9] was roughly 2.64 nM and the binding result (full-length Factor B) was “no binding (tested: 1 µg/mL biotinylated factor B)”. It also gave an EC50 (purified human Factor Bb [7]) of 3.14 nM.
